The values that follow come from US20140314744A1.

For orientation: pKd means −log10 of the Kd, conventionally taken in molar units.

pKd: −log10 of the molar value.

For this test, the target named is Recombinant human Fc-tagged MCAM IgG1-2A (human) (UniProt P43121). In words: SPR (Biacore T200), steady state, MCAM IgG1-2A captured by anti-Fc IgG, laminin in solution.
Sequence of Recombinant human Fc-tagged MCAM IgG1-2A (human) (P43121 19-242): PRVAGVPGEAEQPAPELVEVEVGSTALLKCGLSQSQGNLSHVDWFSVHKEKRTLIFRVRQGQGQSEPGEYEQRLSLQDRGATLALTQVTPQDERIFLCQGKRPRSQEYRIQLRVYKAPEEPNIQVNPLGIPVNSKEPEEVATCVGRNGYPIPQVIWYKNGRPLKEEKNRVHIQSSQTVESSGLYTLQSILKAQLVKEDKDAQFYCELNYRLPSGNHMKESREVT

Regarding “Recombinant human laminin 411 (Biolamina) (from UniProt Q16363 25-1823; P07942 22-1786; P11047 34-1609) (ligand)”, the negative-log Kd (pKd) was 7.18.
